In paper PMC6549151 (2019):

Biological target: GPIIb/IIIa (Homo sapiens, UniProt P08514)
Experiment: spectrofluorometry titration

B1: RusPep (Rusvikunin-II peptide) (peptide)
chain: PESGRCRGHLRRIYYNLES
B1 showed a Kd of 1600 nM.
